In the supplement of paper PMC12764529:
± gives the half width of the 95% confidence interval.

Assay: folding stability dG unfold (combined trypsin and chymotrypsin); higher = more stable
Method: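 Folding stability of de novo designed mini-proteins (<80 aa, no Cys; designed by TrROS, TrMRF, ProteinMPNN and the joint model) was measured by cDNA display proteolysis with trypsin and chymotrypsin. Each protease was used at 11 concentrations in a threefold dilution series plus a no-protease condition. K50 was inferred by Bayesian fitting of sequencing counts, and dG unfold was derived against a sequence-predicted unfolded-state K50 (Tsuboyama et al. method). Sequences shown include variable-length N-terminal GS-type padding (SAGGSAGG...) inside a display construct carrying a PA tag. Rows were kept only if the AF2 dimer inter-PAE was >15, to exclude likely homo-oligomers.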
For “SAGGKPKITITIEKLPDGTIRITITYEDGSKVEIEAKVTYDPKTNTLTIEVTIKINGKTYKITITFKSAGGS [r16_391_TrROS_Hall]”, the “folding stability dG unfold” value was 4.35 ± 0.68 kcal/mol.
For “SAGGSAGGSAGGSMETVEVTEVSFDPSKGTRFVKTTVTRKDEKGNWVEKEEWITEPVLGSAGGSAGGSAGGS [r4_85_JUSTAS]”, the “folding stability dG unfold” value was -0.0805 ± 0.12 kcal/mol.
With “SAGGMKTSPIGTFPLPDPSNGALADTVTIENPKEIIKKSNKEIVKVTVTTTAPDGTPTTTDEIIIIKNSAGG [r13_735_JUSTAS]” the “folding stability dG unfold” value was 0.148 ± 0.3 kcal/mol.
With “SAGMDEYIRELIEKLPSENPSTSPITYRDKNIEAVTYYPSTNTTTFHFPGGEVISASPSTSIEEILKELSAG [r14_59_JUSTAS]” the “folding stability dG unfold” value was -0.193 ± 0.19 kcal/mol.
For “SAGGSAGGEETLRVTEITDVEKPDNGPRIKFPIEHDGKKKPIDINVPPDDLKPGDTIPLEEILKSAGGSAGG [r6_585_TrROS]”, the “folding stability dG unfold” value was 0.222 ± 0.15 kcal/mol.
In the case of “SAGGSAGGSGMVTVKRTVPPGNVEEAVNALTPPNLTITDVKVTELPDSVEVTVTVEDPFPGLVSAGGSAGGS [r12_445_JUSTAS]”, the “folding stability dG unfold” value is reported as 0.0193 ± 0.12 kcal/mol.
For “SAGMEEILEAAREAIEAGLTVRIEVTFKDGKKEEIEIEVESLEELLEALEKLDEIESVKIEVLAPGEEPSAG [r5_956_TrROS_Hall]”, the “folding stability dG unfold” value was 3.61 ± 0.95 kcal/mol.
In the case of “SAGGSAGGSAGGSAVEVDPNGGVTRTRYPGGAVRLETVSPTPDGSLATRTEEVELPGLASAGGSAGGSAGGS [r4_248_JUSTAS]”, the “folding stability dG unfold” value is reported as 0.403 ± 0.051 kcal/mol.
With “SAGGSAGGSAGGVYKVEIEIGDAPRTLVVENAAPEEIRAFLEHPEVRRARVEPLSPEELGSAGGSAGGSAGG [r7_502_TrMRF]” the “folding stability dG unfold” value was -0.152 ± 0.11 kcal/mol.
In the case of “SAGGSAGGSAGKLKVEIEERNGKLVLKVKLELEPEPEPVEVEKKVEVKTETKMSLEELKKSAGGSAGGSAGG [r17_51_TrROS_Hall]”, the “folding stability dG unfold” value is reported as 0.471 ± 0.096 kcal/mol.
With “SAGGSAGGSAGGDVLLFVDESTGLADARALAEALGLKDVVIVPVPPAKPVVLNADGSPTSAGGSAGGSAGGS [r10_1083_TrMRF]” the “folding stability dG unfold” value was -0.0616 ± 0.1 kcal/mol.
With “SAGGSAGGSAGGGEYAKIKIKNPINPKYKEIEIEIPSNKKNVIINATGSGNATITEIKLESAGGSAGGSAGG [r7_687_TrMRF]” the “folding stability dG unfold” value was -0.584 ± 0.49 kcal/mol.
With “SAGGSAPVIVKEASLEEIKELKKKGVKKIILVEKNPEIAEKIKKEFEKEDDIPIETVSEEEAKKLKSAGGSA [r15_243_TrMRF]” the “folding stability dG unfold” value was -0.718 ± 0.28 kcal/mol.
With “SAGGSAGGSAGGEPDPKFHVEYDEEEGRYKVKIYNPNNNKKEEIEVPVPPGQPKEEAIKSAGGSAGGSAGGS [r10_676_TrROS]” the “folding stability dG unfold” value was -0.269 ± 0.27 kcal/mol.
For “SAGGSAGGMIVELPTPDDETLTLTTRPTPDGSVPVTATRLTPDSTEVTTVSTADPAVVELVAAASAGGSAGG [r6_607_JUSTAS]”, the “folding stability dG unfold” value was under -1 kcal/mol.
With “SAGGSAGGSAMGPPVRRVTITLSDGTRYEVDVAPDDSVAAVRAPLAAHPDVAAVTELTVEPSAGGSAGGSAG [r3_308_JUSTAS]” the “folding stability dG unfold” value was 0.282 ± 0.084 kcal/mol.
In the case of “SAGGSAGGSAGGSDSSVITFDIPVSEYPAKIKLSPETKTMTVVSTSPEGTVKVAIERPGSAGGSAGGSAGGS [r10_352_JUSTAS]”, the “folding stability dG unfold” value is reported as -0.889 ± 0.48 kcal/mol.
In the case of “SAGGSAGGSAGGPIRIKNIENVNPDDGMFTVDVEFPDGKNHTYMIPPDQLEEPGDEIEIPSAGGSAGGSAGG [r7_117_TrROS]”, the “folding stability dG unfold” value is reported as under -1 kcal/mol.
In the case of “SAGGSAGGSSMPVLPVRTEEFPHPDSVYTVTTTRYPPTGATVTVLSTRFPGPPEVVTSTTVTPSAGGSAGGS [r12_14_JUSTAS]”, the “folding stability dG unfold” value is reported as under -1 kcal/mol.
For “SAGGSNPLLDELKDKPFRLPNIRDPGNGRDFPGVPIKIKEAEPPKDDGKISIKVEHPDGPYEMQIDSAGGSA [r2_314_TrROS]”, the “folding stability dG unfold” value was under -1 kcal/mol.
For “SAGGSAGGSAGDNGKPEVKPVRIPIFIPGPKEQAKRIANYLYGFGMPIDVEVFDPDGKPISAGGSAGGSAGG [r11_703_TrROS]”, the “folding stability dG unfold” value was under -1 kcal/mol.
For “SAGGSAGGSAGEPVKIPITIKMRDNGKPREQPFKVEVEPNPDGNTQHKLNMPEGNITEIESAGGSAGGSAGG [r11_816_TrROS]”, the “folding stability dG unfold” value was under -1 kcal/mol.
For “SAGGSAGGSMPYEVTITDPNSDRTRTRKVSGDSPEISEAVPPSHTVTLTFGGTKTTLPVPALSSAGGSAGGS [r20_36_JUSTAS]”, the “folding stability dG unfold” value was under -1 kcal/mol.
For “SAGGSAGGSKLKIEQDPSDGFLQIQIPPGDEEVKIKFNGEEIEFPLPPGQPIWIPANNWKIEPSAGGSAGGS [r20_26_TrROS]”, the “folding stability dG unfold” value was under -1 kcal/mol.
For “SFKLPEGEEREFRLPDVPIEIEVDDGPGMIKINIYPPENPGKPVFEHEVPPGEIKPIEIPPELRDAMKKQSA [r9_1051_TrROS]”, the “folding stability dG unfold” value was under -1 kcal/mol.
For “SAGGSAGGSAGGGSVHMPPLINWQEEEFEYESEEPVHIKRLVYKHPYSNEVEEEIEILLSAGGSAGGSAGGS [r10_881_JUSTAS]”, the “folding stability dG unfold” value was under -1 kcal/mol.
With “SAMDAKELAEEIADEFAPKFPNIKPKKVTVEPTGDHYEGNIEWEMPNGRPMRVEVTVEKDGNIEDIEFHSAG [r14_719_TrROS]” the “folding stability dG unfold” value was under -1 kcal/mol.
In the case of “MTIEIEVTAEDLKEGKPLTAEELAKKLAEELGLEEVEVKVEVKEDGTVKITIEVKPKPPPEVVLPEELKKKS [r1_168_TrROS_Hall]”, the “folding stability dG unfold” value is reported as under -1 kcal/mol.
In the case of “SAGGSTVTVEVETEEEAEALLQGLPELEEVVVVIPGEGEPVEKPVKIEPPAPGVLGETPLPRPSPRLLSAGG [r13_183_JUSTAS]”, the “folding stability dG unfold” value is reported as under -1 kcal/mol.
With “SPTLPFPFPDGHPYMIHLNPEKNEIHIHNPESGRPYRIKVPGGKERRIPAGADSLDELKDLPPLKIEPMPSA [r9_205_TrROS]” the “folding stability dG unfold” value was under -1 kcal/mol.
In the case of “SAGGSAGGSVKITRTPNGYYTVKIEDPGGVPVEIPVPADDPGMTNKEAEDEVKPIAKEFKRLKSAGGSAGGS [r12_642_TrROS]”, the “folding stability dG unfold” value is reported as under -1 kcal/mol.
With “SAGGSMPLETLETTGEYVPGTGVYVTKLAVGDPKSDVSFSVTETRPTTDPVTGTPSLYSKPVSFSYKKSAGG [r19_129_JUSTAS]” the “folding stability dG unfold” value was under -1 kcal/mol.
In the case of “SAGGSAGGSAGGSGSFDPENGTIEIRVPKTKKPVKIPFPEEEADEFAENLPPNLDRVHFSAGGSAGGSAGGS [r4_282_TrROS]”, the “folding stability dG unfold” value is reported as under -1 kcal/mol.
For “SAGGSAGGSAKHDVKIDDVERMPNPYRFTITFPGNGKPIPIPFRPNMSIDEMKKEAKELAKSAGGSAGGSAG [r3_142_TrROS]”, the “folding stability dG unfold” value was under -1 kcal/mol.
For “SAGGSAGGSGKIPKLIKEIGIPYEVKSIKVTTGKDDKPTVEIEFLPDVPEEDREKIKKAIEEESAGGSAGGS [r12_352_TrMRF]”, the “folding stability dG unfold” value was under -1 kcal/mol.
